Data published in the supplement of paper PMC12764529.
± gives the half width of the 95% confidence interval.

Columns and labels:
[1] = folding stability dG unfold from chymotrypsin proteolysis; higher = more stable
Outline: (§1)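 K50 was inferred by Bayesian fitting of sequencing counts obtained after protease digestion of designed mini-proteins. Unfolding free energy was derived by comparison with a sequence-predicted unfolded-state K50 and a shared folded-state K50, for each protease or both combined. The mini-proteins were under 80 residues, had no cysteine, were carried in a PA-tagged cDNA display construct, and were kept only if AlphaFold2 dimer inter-PAE exceeded 15.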

[2] = folding stability dG unfold (combined trypsin and chymotrypsin); higher = more stable
Outline: as §1

[3] = folding stability dG unfold from trypsin proteolysis; higher = more stable
Outline: as §1

Row | Sequence | folding stability dG unfold [1] [kcal/mol] | folding stability dG unfold [2] [kcal/mol] | folding stability dG unfold [3] [kcal/mol]
1 | SDALKNIPFEIVEIDPPPPDRPIPAGGTVRITVYNPLTPGQPFTFDVRFIPGEGTLIAEIGGLPVEIPIGSA [r9_243_TrMRF] | 3.46 ± 0.082 | 2.94 ± 0.12 | 2.53 ± 0.079
2 | SDEDLEILRVEATPDTIRILFKIPSNPDLYIEVPITVFEDETSRRILINARILRPETGEVIAEIPFEIPLSA [r9_18_TrMRF] | 4.24 ± 0.13 | 3.78 ± 0.24 | 3.53 ± 0.16
3 | SDKVEIWIPIPDGFWVRIKYDKPGKREITIWMPEDNPEFRKHGSMDQFIKHLARKLGLDPDKVKVDMYPMSA [r9_401_TrROS] | 4.11 ± 0.098 | 3.69 ± 0.14 | 3.13 ± 0.1
4 | SDLDPNSTLVFSAPFPVSDPDALLEHAETVARELGPDVRVERVVFDPNTPNVAVVEVSVPGGTVTLVYSRSA [r9_1079_TrMRF] | 1.36 ± 0.061 | 1.33 ± 0.062 | 1.24 ± 0.017
5 | SDNFQPDMTFPVTEIGDDKVTMKYNGKPYYIPTSKITSPNVTVKITDGTVSEVSSPSPSPLPPENIKKLSSA [r9_842_JUSTAS] | -0.293 ± 0.35 | -0.263 ± 0.42 | -0.705 ± 0.24
6 | SDPDAKLLPATFTFRDPLTGEEVTVEVTVYETSGYLLAPAKVTVTLPTKPRTLTATLLVDENGNVHLFVSSA [r9_1015_TrMRF] | 4.31 ± 0.08 | 3.73 ± 0.17 | 2.82 ± 0.2
7 | SDPILEILKDAFQEFGIPVQVSIEPDPDGKRVIPIRIMSPKDMDENGMKMQEQTFPIKVNGKKWRVEISWSA [r9_489_TrROS] | 1.31 ± 0.14 | 1.41 ± 0.11 | 1.45 ± 0.084
8 | SDPNKPWTAEEIAKIIEEKILEEFDVEEIIPKELKVFPKEGTVKVKMLVKYKGEPGKYFELEVEISPEELSA [r9_1002_TrMRF] | 2.9 ± 0.038 | 2.52 ± 0.081 | 1.58 ± 0.037
9 | SDWHYIQIPFEITFKAPPEQARQFVEDLAENLGITDINVDNIEYDPNNGEVKVKVSISIMIPPPPPPEDDSA [r9_918_TrROS] | 3.36 ± 0.12 | 2.73 ± 0.2 | 2.36 ± 0.15
10 | SDYYIINIKIEVYYDGKPVREIPIFILVPPEQALMIAETIAEMLPGYKVKIKINVYRIPEDDPELREAFGSA [r9_782_TrROS] | 3.26 ± 0.044 | 2.93 ± 0.18 | 2.31 ± 0.077
11 | SEAEEAARKLAEELGLEVEVVEVDEETGTVTVRVRFEDEPTVTITITFDEETGELTVTIEVRPPPPPPPESA [r9_1119_TrROS_Hall] | 3.51 ± 0.54 | 3.72 ± 0.43 | 3.49 ± 0.23
12 | SEAEIKIKEVDENGYLVLEIKVPKEEVEKLREKLKELFPNAEIVEVKYDEETGEVTIIVRLPDGKLYEFKSA [r9_1164_TrROS_Hall] | 1.05 ± 0.099 | 1.06 ± 0.13 | 1.05 ± 0.076
13 | SEDTVTIEVRAFPVKDKNGKPRFYVSIEFGNGPVSYPIPGLPEGMKEGETFTIEIPPENIKKVDISIMPYSA [r9_769_TrROS] | 2.09 ± 0.1 | 1.97 ± 0.19 | 2.09 ± 0.12
14 | SEEEIEERIKKLAEELGFKVTEIKIEKTDNKLTVTVTITLPNGKKLTFTVTRDKNGKLTFTPEQLKKALKSA [r9_85_TrROS_Hall] | 3.609 ± 0.022 | 3.21 ± 0.07 | 2.36 ± 0.038
15 | SEEEIVEEPPPETRTLTLELVDPETGELVATITVSPDGTVTLTVRTPDGEEKTITVPEGMSLEEALAAALSA [r9_346_TrROS_Hall] | 4.39 ± 0.24 | 4.18 ± 0.45 | 3.19 ± 0.21
16 | SEEEYLVIEVEFEVENPEEAREFAERLARELPLDEIESLEVEVEPREVFVEGEPVGPVYRFRVRAVVRPRSA [r9_605_TrMRF] | 2.98 ± 0.048 | 2.77 ± 0.079 | 2.62 ± 0.069
17 | SEEPVEERDIVVKPGEEVKLELPEEPETVRVYVFNEDGELIEEREFPPGATPEELEGLKLPPGAVVRIVRSA [r9_215_TrROS_Hall] | 2.54 ± 0.029 | 2.2 ± 0.045 | 1.32 ± 0.036
18 | SEFPESVPVDWVERELTFSSSSKEELEKKIKELLKNIEIEVSYDPKTNKYTLKIKFPSKEKAEKVEELLSSA [r9_764_JUSTAS] | 3.268 ± 0.026 | 2.96 ± 0.14 | 2.22 ± 0.067
19 | SEKPEFKIVKIEVVEVDEDGKTVKVRVVVEGPDGRLYEVEMTLEELKKLLEELGIDLEDIKPGDVIVIPPSA [r9_1078_TrROS_Hall] | 3.09 ± 0.073 | 3.58 ± 0.15 | 3.75 ± 0.11
20 | SEKPEVTIKIEVEEREDGYLVVRVEVTFPEDPEKVELTLEMSREEAEELAKKLAEELPGVKVKVEIVELPSA [r9_374_TrROS_Hall] | 2.4 ± 0.17 | 2.44 ± 0.14 | 2.41 ± 0.17
21 | SEKVKITIEVWRPPGWWYVKIKLPDNGQEITYPFDSAEDFKEQIKKWLGLPPDNVKITDVEVYPMPPDDFSA [r9_909_TrROS] | 3.14 ± 0.081 | 2.52 ± 0.22 | 1.82 ± 0.11
22 | SELEDMTPEQLRERIRELLEELREERPGEEVEITIEELLERLPGMSREQLAEILGLTEEELENRTITIRASA [r9_525_TrROS_Hall] | 2.47 ± 0.085 | 2.35 ± 0.14 | 2.08 ± 0.11
23 | SELVEKAAEKGVKEIHIYLSEEQREAILKAADAGVKITIHLPEGATVEELKALPGIKVDKVEVFSPEELKSA [r9_671_TrROS_Hall] | -0.078 ± 0.082 | 0.0735 ± 0.14 | 0.273 ± 0.044
24 | SENKPVTVLVNVTKNEDGTYTARVFVFDENGKLLAEEEVEAPLEKAVELVEALKKAYPNAKVVAVFTEGLSA [r9_374_TrMRF] | 4.81 ± 0.21 | 4.67 ± 0.2 | 3.63 ± 0.23
25 | SENPVLKNRPLPVVGTTERTSVAKPGESLDVKELPSNGIVATTPDGSTVGITVTVDANGNVLSLEIKPDPSA [r9_1195_JUSTAS] | 0.272 ± 0.069 | 0.164 ± 0.12 | 0.00583 ± 0.068
26 | SENWEPEPITFPDGITIWVMPDYGMIDIIDPDKGTFEMFMIRVDPNGKPEINPLTFKLDPPNGKIKDITPSA [r9_122_TrROS] | 0.572 ± 0.91 | 0.49 ± 0.26 | 0.657 ± 0.2
